T1: rat CLEC10A ECD (Rattus norvegicus, UniProt P49301)
T1 construct: His-tagged rat CLEC10A ECD (R&D Systems) was immobilized to OCTET® Penta-His biosensors; purchased R&D Systems
T1 sequence (P49301 59-306 limits assumed): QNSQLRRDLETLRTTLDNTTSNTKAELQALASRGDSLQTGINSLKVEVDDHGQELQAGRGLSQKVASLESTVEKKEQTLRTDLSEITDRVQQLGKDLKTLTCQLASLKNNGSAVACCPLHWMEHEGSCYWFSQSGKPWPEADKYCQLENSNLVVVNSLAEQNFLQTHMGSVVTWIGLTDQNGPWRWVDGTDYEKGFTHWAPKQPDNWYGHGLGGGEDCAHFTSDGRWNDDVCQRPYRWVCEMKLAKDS

T2: human ASGR1 extracellular domain (ECD) (Homo sapiens, UniProt P07306)
T2 sequence (P07306 62-291 limits assumed): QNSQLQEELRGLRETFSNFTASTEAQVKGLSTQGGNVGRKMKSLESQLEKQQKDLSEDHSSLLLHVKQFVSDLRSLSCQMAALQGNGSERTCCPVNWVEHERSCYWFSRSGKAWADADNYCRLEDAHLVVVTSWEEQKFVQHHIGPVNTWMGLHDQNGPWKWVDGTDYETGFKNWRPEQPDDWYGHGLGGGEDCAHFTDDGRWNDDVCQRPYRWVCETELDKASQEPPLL

T3: rat ASGR1 (Rattus norvegicus, UniProt P02706)
T3 construct: expressed in transfected cells; host or cells: CHO-S
T3 sequence (P02706 1-284): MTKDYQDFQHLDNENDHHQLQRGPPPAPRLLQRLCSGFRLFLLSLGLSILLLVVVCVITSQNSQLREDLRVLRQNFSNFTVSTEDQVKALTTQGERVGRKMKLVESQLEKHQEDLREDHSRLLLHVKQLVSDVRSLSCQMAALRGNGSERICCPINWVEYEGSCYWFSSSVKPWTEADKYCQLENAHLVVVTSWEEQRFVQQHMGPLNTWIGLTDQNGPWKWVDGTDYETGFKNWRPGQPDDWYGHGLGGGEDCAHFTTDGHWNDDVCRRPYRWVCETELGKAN


Assays:
[1] = molecular target: T1, rat CLEC10A ECD; test: OCTET avidity binding to immobilized rat CLEC10A ECD; settings: for Binding signal to rat CLEC10A ECD: in words; for Response, binding to rat CLEC10A ECD: test antibody at 25 μg/mL
Description: Analysis of binding to the rat CLEC10A ECD was performed using the OCTET® Red 96 instrument (ForteBio). His-tagged rat CLEC10A ECD (R&D Systems) was immobilized to OCTET® Penta-His biosensors and subjected to avidity binding of test antibodies in kinetics buffer (PBS+1% BSA+0.2% Tween20+0.9 mM CaCl2) at pH 7.4) in the following steps: (1) hydration of Penta-His biosensors in kinetics buffer (10 min); (2) regeneration and neutralization of Penta-His biosensor in 10 mM glycine-HCl (pH 1.5) and kinetics buffer, respectively in triplicate; (3) baseline acquisition (30 s); (4) immobilization of rat CLEC10A ECD to Penta-His biosensors at a concentration of 10 μg/mL (180 s); (5) second baseline acquisition (60 s); (6) association of test antibody at 25 μg/mL (60 s); (7) dissociation in kinetics buffer (60 s).
The interactions of test mAbs with rat CLEC10A ECD was analyzed using the OCTET® Data Analysis Software 9.0 (ForteBio).

[2] = molecular target: T2, human ASGR1 extracellular domain (ECD); test: Effect of calcium on binding to human ASGR1 ECD (OCTET); design: key to Ca^2+ Sensitivity during: Association / Ca^2+ Sensitivity during: Dissociation / Ca^2+ Sensitivity: N = No; Y = Yes
Description: The ability of anti-human ASGR1 antibodies of this disclosure to bind to human ASGR1 in the presence or absence of calcium in binding buffer was examined. Briefly, ASGR1 antibodies were bound to immobilized human ASGR1 extracellular domain (ECD) at saturating levels and subsequently dissociated under three different conditions as follows: (a) binding and dissociation with buffer containing calcium (PBS+1% BSA+0.2% Tween20+0.9 mM CaCl2), pH 7.4); (b) binding with buffer containing calcium and dissociation with buffer lacking calcium; and (c) binding and dissociation with buffer lacking calcium. Analysis of ASGR1 antibody binding to human ASGR1 ECD was performed using the OCTET® Red 96 instrument and analyzed using the OCTET®Data Analysis Software 9.0 (ForteBio). His-tagged human ASGR1 ECD was immobilized to OCTET® Penta-His biosensors and ASGR1 antibodies were subjected to avidity binding under the conditions described above. Association with the ASGR1 ECD was measured by the rate of and increase in magnitude of signal response at a given antibody concentration. Dissociation from the ASGR1 ECD was measured as the rate of loss in signal upon removal of the antibody and further incubation with or without Ca^2+. […] Also tested were humanized antibodies hzH8K-1 and hzL4L-7.
Further analysis of the antibodies of this disclosure was to determine whether the presence of calcium was needed for binding (i.e., during association) of the antibodies to human ASGR1 ECD. […]

[3] = system: human PBMCs cultured with ASGR1-expressing tumor cell line HepG2; test: TNF-α production by human PBMC co-cultured with HepG2 (AlphaLISA); format: cell-based; settings: PBMC:HepG2 5:1, 24 hours
Description: The effect on TNF-α production by human PBMCs co-cultured with ASGR1 expressing HepG2 tumor cells and in the presence of anti-ASGR1-TLR8 agonist conjugates was examined. An increase in TNF-α production by human PBMCs would indicate that myeloid cells are being activated. Briefly, peripheral blood mononuclear cells (PBMC) were isolated from normal human donor blood using SEPMATE™-50 PBMC Isolation Tubes ([…] Technologies) according to manufacturer's instructions. Isolated PBMC were cultured with the ASGR1-expressing tumor cell line HepG2 or the ASGR1-negative cell line HEK 293 at a 5:1 ratio in the presence of titrated concentrations of anti-ASGR1-TLR8 agonist conjugates (G2D-Compound 2.14, J4F-Compound 2.14, K2E-Compound 2.14, L4L-Compound 2.14, hzL4L-7-Compound 2.14, hzL4L-14-Compound 2.14, H8K-Compound 2.14, hzH8K-1-Compound 2.14, and hzH8K-10-Compound 2.14, as well as control conjugates comprised of ASGR1-mAb-A-Compound 2.14, ASGR1-mAb-B-Compound 2.14, ASGR1-mAb-C-Compound 2.14, anti-digoxin mAb-Compound 2.14, and unconjugated antibody controls). After 24 hours, cell-free supernatants were collected and stored at −80° C. prior to analysis. TNF-α levels in the cell-free supernatants were quantified using the TNF-α (human) AlphaLISA® Detection Kit (Perkin Elmer) according to manufacturer's instructions.

[4] = molecular target: T3, rat ASGR1; test: Cell binding to rat ASGR1 transiently expressed by CHO-S cells (GUAVA); settings: in words
Description: Anti-human ASGR1 antibodies of this disclosure were examined for cross-reactivity with Cynomolgus macaque and rat ASGR1. Briefly, sequence encoding Cynomolgus macaque or rat ASGR1 was transiently transfected into CHO-S cells. Transfected cells were before performing cell binding assay. A total of about 1.5×10^4 transfected cells/well were added to 96-well V-bottom assay plate, incubated at 37° C., 5% CO2 for 48-72 hours, and then washed with culture medium before adding 100 μl of each ASGR1 antibody at different concentrations starting from 100 nM and 3-fold dilutions to a total of eight wells. The cells with antibody were incubated for 40 minutes at 4° C., then washed three times with 200 μl of fresh culture medium. To each well was added 50 μl PE conjugated goat anti-human Fc (SouthemBiotech) at 1:200 dilution in culture medium and then incubated at 4° C. for 20 minutes. After washing the plate once, the treated cells were resuspended in 200 μl culture medium and then the stained cells were analyzed on GUAVA® using Incyte software.

| Binding signal to rat CLEC10A ECD [1] | Ca^2+ Sensitivity [2] | Ca^2+ Sensitivity during: Association [2] | Ca^2+ Sensitivity during: Dissociation [2] | Cross-reactivity with rat ASGR1 [4] | Sensitivity to calcium (difference in binding signal after dissociation >±10%) ([2]; in words) | Molecule | Response, binding to rat CLEC10A ECD [1] | TNF-α production from human PBMCs [3] |
| --- | --- | --- | --- | --- | --- | --- | --- | --- |
| even less above background binding | N | N | N | not rat cross-reactive |  | hzH8K-1: "humanized anti-ASGR1 antibodies hzH8K-1 and hzH8K-10 as compared to parent mouse anti-ASGR1 antibody H8K" (antibody, V domains shown, Synthetic sequence hzH8K VH; Synthetic sequence hzH8K VL) VH: QVQLQESGPGLVKPSQTLSLTCTVSGGSISSDYAWNWIRQHPGKGLEWIGYRSYRGSTSYNPSLKSRVTISVDTSKNQFSLKLSSVTAADTAVYYCARRGYYGSSSHWYFDVWGQGTTVTVSS VL: DIQMTQSPSSLSASVGDRVTITCRASENIYSYLAWYQQKPGKAPKLLIYNAKTLAEGVPSRFSGSGSGTDFTLTISSLQPEDFATYYCQHHYGTPLTFGGGTKVEIK | 0.0495 nm | more efficient at inducing TNF-α production as compared to the parent antibody conjugates |
| No observable binding signal | N | N | N | not rat cross-reactive | lacking sensitivity to calcium | hzL4L-7: "humanized anti-ASGR1 antibodies hzL4L-7 and hzL4L-14 as compared to parent mouse anti-ASGR1 antibody L4L" (antibody, V domains shown, human IgG1/kappa constant regions; Synthetic sequence hzL4.6L VH G27Y, S70T, V71R; Synthetic sequence hzL4L VL) VH: QVQLQESGPGLVKPSQTLSLTCTVSGYSISSDYAWNWIRQHPGKGLEWIGYISYSGSTRYNPSLKSRVTITRDTSKNQFSLKLSSVTAADTAVYYCARRYRYDEGYGMDYWGQGTTVTVSS VL: DIQMTQSPSSLSASVGDRVTITCRASENIYSNLAWYQQKPGKAPKLLIYAATNLADGVPSRFSGSGSGTDFTLTISSLQPEDFATYYCQHFWGTPPWTFGGGTKVEIK | — (Antibodies tested with response of <0.02 nm were below the limit of detection (—)) | more efficient at inducing TNF-α production as compared to the parent antibody conjugates |
